Assay results as given in paper PMC5687670, “hYSK1 promotes cancer cell proliferation and migration through negative regulation of p16^INK4a under hypoxic conditions” (Oncotarget, 2017).

Target: T1, hYSK1 on the ProtoArray Human Protein Microarray (human, UniProt O00506 1-426)
T1 construct: hYSK1, human Ste20 family serine/threonine protein kinase; one of 1,800 recombinant human proteins on the array; also called human analog of YSK1; source: bought: ProtoArray Human Protein Microarray (v.1.0), recombinant human protein printed on nitrocellulose slide
Test: peptide or protein array; ProtoArray Human Protein Microarray (v.1.0), 1,800 recombinant human proteins on nitrocellulose slides, blocked and probed with biotin-labeled p16^INK4a; detected with streptavidin-Alexa Fluor 647
Details: both partners purified

T1 sequence (O00506 whole entry): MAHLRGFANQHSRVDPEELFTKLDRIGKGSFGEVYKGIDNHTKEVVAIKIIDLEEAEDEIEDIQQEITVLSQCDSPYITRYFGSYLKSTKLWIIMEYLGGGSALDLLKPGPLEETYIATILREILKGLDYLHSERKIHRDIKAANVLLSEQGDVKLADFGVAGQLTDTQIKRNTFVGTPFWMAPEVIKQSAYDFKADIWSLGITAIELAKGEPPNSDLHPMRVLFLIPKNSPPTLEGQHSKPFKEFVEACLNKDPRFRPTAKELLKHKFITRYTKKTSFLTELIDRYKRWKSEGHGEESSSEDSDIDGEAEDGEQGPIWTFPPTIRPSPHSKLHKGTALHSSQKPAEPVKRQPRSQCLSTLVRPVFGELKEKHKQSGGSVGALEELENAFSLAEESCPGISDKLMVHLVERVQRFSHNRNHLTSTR

- binding result: binds
B1: biotin-labeled p16^INK4a (natural protein, UniProt P42771 1-156, looked up)
chain: MEPAAGSSMEPSADWLATAAARGRVEEVRALLEAGALPNAPNSYGRRPIQVMMMGSARVAELLLLHGAEPNCADPATLTRPVHDAAREGFLDTLVVLHRAGARLDVRDAWGRLPVDLAEELGHRDVARYLRAAAGGTRGSNHARIDAAEGPSDIPD
modifications: biotin (biotinylated; site not stated)
notes: probe for the protein microarray
